The supplement of paper PMC10724198
± gives the standard deviation of the averaged measurements.

Test system: Saccharomyces cerevisiae
Experiment: protein stability index of tFT-peptide fusion (C-terminal peptide) (PSI (0-1 scale)); higher = more stable (slower turnover)
Conditions: temperature: 30 C
Description: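 MPS profiling in S. cerevisiae of the yeast C-terminome library: the last 12 aa of each annotated ORF are fused to the C-terminus of a sfGFP-mCherry timer, after a GGGS linker. Cells are FACS-sorted into 8 mCherry/sfGFP bins and deep-sequenced. PSI runs from 0 (unstable) to 1 (stable); wild type and das1Δ backgrounds, two technical replicates each.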

[1] = genetic background: das1 deletion

Sequence	protein stability index [1]	protein stability index (genetic background: wild type)
LLLQKSGTYLLL [ARV1 C-terminal 12 aa]	0.639 ± 0.032	0.638 ± 0.0066
LLLSIFSILIVL [YPS7 C-terminal 12 aa]	0.321 ± 0.0053	0.2802 ± 0.0025
LLMVSVVNFVPL [YPL182C C-terminal 12 aa]	0.474 ± 0.034	0.479 ± 0.0093
LLNDIKRRNMGR [MET28 C-terminal 12 aa]	0.6834 ± 0.0045	0.723 ± 0.12
LLRNGDIDTITK [COG3 C-terminal 12 aa]	0.7045 ± 0.0048	0.68 ± 0.016
LLYLYDNDHTST [GPI19 C-terminal 12 aa]	0.72 ± 0.058	0.6907 ± 0.0034
LMAKRFQTGSLK [RTS3 C-terminal 12 aa]	0.7028 ± 0.00076	0.716 ± 0.043
LMFSKLGRYLFN [NSG1 C-terminal 12 aa]	0.6857 ± 0.0016	0.655 ± 0.021
LMLGVAYYLLNE [CYB5 C-terminal 12 aa]	0.624 ± 0.044	0.649 ± 0.048
LMVENFRKEYII [PTI1 C-terminal 12 aa]	0.7001 ± 0.002	0.547 ± 0.031
LMYIYQAFTTQD [GDT1 C-terminal 12 aa]	0.684 ± 0.011	0.663 ± 0.036
LNAFQHPIVEFQ [YEL028W C-terminal 12 aa]	0.755 ± 0.013	0.69 ± 0.022
LNDIGDPTKTVQ [YPL025C C-terminal 12 aa]	0.689 ± 0.0087	0.705 ± 0.0072
LNEYSKDPPGNN [RAD18 C-terminal 12 aa]	0.704 ± 0.018	0.707 ± 0.021
LNNFKFKTNSKQ [XBP1 C-terminal 12 aa]	0.713 ± 0.027	0.679 ± 0.022
LNNTAASTGPGR [YKE2 C-terminal 12 aa]	0.684 ± 0.011	0.655 ± 0.0052
LNRKEESDSFVA [CHS3 C-terminal 12 aa]	0.6769 ± 0.0027	0.679 ± 0.017
LNTSNECCTSDD [BIL2 C-terminal 12 aa]	0.692 ± 0.023	0.669 ± 0.016
LNTYVILFYTVY [YOL166W-A C-terminal 12 aa]	0.273 ± 0.046	0.263 ± 0.0054
LPHFSHLHVHHD [YHR056W-A C-terminal 12 aa]	0.7294 ± 0.0032	0.719 ± 0.032
LPPGLNSKKNIK [EAP1 C-terminal 12 aa]	0.69532 ± 0.00062	0.658 ± 0.01

Sequence	protein stability index [1]	protein stability index (genetic background: wild type)
LPQRSIPCAIYP [YCR108C C-terminal 12 aa]	0.687 ± 0.012	0.7045 ± 0.0036
LSAGFGIGEFML [YGR079W C-terminal 12 aa]	0.72 ± 0.023	0.692 ± 0.036
LSAIVFLGTSSH [AVT5 C-terminal 12 aa]	0.7155 ± 0.0055	0.704 ± 0.021
LSDKNPEFKYMY [TNA1 C-terminal 12 aa]	0.686 ± 0.0071	0.706 ± 0.0095
LSEASKLASKPL [COX15 C-terminal 12 aa]	0.701 ± 0.0094	0.704 ± 0.039
LSLRSLQIMGRN [DSS4 C-terminal 12 aa]	0.6993 ± 0.00084	0.726 ± 0.024
LSSKKQTVMDKE [POL5 C-terminal 12 aa]	0.6463 ± 0.0045	0.749 ± 0.051
LSTKNIDDGMIS [COG7 C-terminal 12 aa]	0.706 ± 0.025	0.679 ± 0.052
LVEILDCEIRTL [MIC60 C-terminal 12 aa]	0.6827 ± 0.0058	0.6707 ± 0.0035
LVFALLTCFEDG [YDR209C C-terminal 12 aa]	0.481 ± 0.0089	0.505 ± 0.014
LVGGGIKKSGKK [TMA7 C-terminal 12 aa]	0.67 ± 0.016	0.736 ± 0.011
LVHFLGLILNNF [YNL171C C-terminal 12 aa]	0.68 ± 0.018	0.624 ± 0.014
LVHIKMENGIVS [IZH2 C-terminal 12 aa]	0.65319 ± 0.00027	0.693 ± 0.019
LYGPSKTRKFFD [VMA4 C-terminal 12 aa]	0.724 ± 0.027	0.692 ± 0.011
LYGQRFLATGFQ [AIM19 C-terminal 12 aa]	0.714 ± 0.0097	0.705 ± 0.024
LYLLLARVFEIW [SNF11 C-terminal 12 aa]	0.567 ± 0.059	0.5614 ± 0.0025
LYQCRMPCLYSI [YGL193C C-terminal 12 aa]	0.659 ± 0.026	0.586 ± 0.014
LYWDPSWITRQL [SNF8 C-terminal 12 aa]	0.716 ± 0.019	0.621 ± 0.043
MDPMSPLNKDVS [YMR196W C-terminal 12 aa]	0.692 ± 0.0081	0.73 ± 0.05
MFTSDKKTEQTT [URC2 C-terminal 12 aa]	0.708 ± 0.0052	0.695 ± 0.011
MGSSRRTSLDFF [YBR071W C-terminal 12 aa]	0.7242 ± 0.0015	0.693 ± 0.025

Sequence	protein stability index [1]	protein stability index (genetic background: wild type)
MIDELDYNINFA [UGA3 C-terminal 12 aa]	0.7 ± 0.013	0.791 ± 0.076
MILKVSLECAVS [YDL009C C-terminal 12 aa]	0.468 ± 0.0021	0.481 ± 0.016
MKKPRKSKKAAN [KRE33 C-terminal 12 aa]	0.716 ± 0.018	0.714 ± 0.039
MKTRLERERGLV [PTC4 C-terminal 12 aa]	0.694 ± 0.027	0.638 ± 0.019
MMAVDTDVDMDA [YPL071C C-terminal 12 aa]	0.668 ± 0.012	0.673 ± 0.014
MMTRENMDMGER [RRP3 C-terminal 12 aa]	0.669 ± 0.044	0.649 ± 0.027
MNAAENEVKKEK [SUR2 C-terminal 12 aa]	0.688 ± 0.016	0.669 ± 0.027
MNGIPREAFVQF [MEX67 C-terminal 12 aa]	0.68 ± 0.0078	0.701 ± 0.022
MSNSNSVCCTLM [STE18 C-terminal 12 aa]	0.736 ± 0.01	0.7027 ± 0.0034
MSSTDWVTKPTY [AFG1 C-terminal 12 aa]	0.6977 ± 0.0026	0.678 ± 0.017
MTKISILKPFLH [CDC6 C-terminal 12 aa]	0.711 ± 0.0076	0.6156 ± 0.0052
MYSSKDNPASPK [TAF1 C-terminal 12 aa]	0.693 ± 0.021	0.674 ± 0.017
NAEKAAGQKKED [YLL053C C-terminal 12 aa]	0.695 ± 0.034	0.658 ± 0.018
NAIEEELAKMKL [THR4 C-terminal 12 aa]	0.6922 ± 0.0025	0.692 ± 0.035
NDTIKLNQSIYS [ASK10 C-terminal 12 aa]	0.701 ± 0.02	0.7048 ± 0.0015
NEALVKTTKQKL [LPX1 C-terminal 12 aa]	0.703 ± 0.013	0.704 ± 0.018
NEEMAEISNPFR [FEN2 C-terminal 12 aa]	0.699 ± 0.019	0.711 ± 0.026
NEEMIRKLKAAK [JID1 C-terminal 12 aa]	0.674 ± 0.015	0.662 ± 0.021
NEPTNSDIVELD [UBA2 C-terminal 12 aa]	0.693 ± 0.023	0.676 ± 0.019
NFKNSSAKSKRS [PKH2 C-terminal 12 aa]	0.682 ± 0.014	0.695 ± 0.0083
NFLNLLSPLPSV [TOM7 C-terminal 12 aa]	0.72262 ± 0.00027	0.6951 ± 0.0031

Sequence	protein stability index [1]	protein stability index (genetic background: wild type)
NGTAKSAQSTTV [YAR019W-A C-terminal 12 aa]	0.67513 ± 0.00026	0.729 ± 0.016
NGWHELALPQSR [SWM1 C-terminal 12 aa]	0.74 ± 0.0028	0.705 ± 0.021
NIATIASERSRP [YPL102C C-terminal 12 aa]	0.723 ± 0.046	0.683 ± 0.007
NIIGLLSNDEEH [CBP2 C-terminal 12 aa]	0.6944 ± 0.0063	0.6869 ± 0.0018
NKDTMQLFRAYL [CIN2 C-terminal 12 aa]	0.7695 ± 0.0014	0.834 ± 0.04
NKPKGPLRKRRT [TWF1 C-terminal 12 aa]	0.7 ± 0.017	0.672 ± 0.011
NKREFIDSLRPH [AIM20 C-terminal 12 aa]	0.71 ± 0.013	0.6774 ± 0.0032
NLDGQIHYLQRL [GAL7 C-terminal 12 aa]	0.706 ± 0.012	0.761 ± 0.091
NMVNFESEKVNR [YVH1 C-terminal 12 aa]	0.706 ± 0.02	0.662 ± 0.012
NNDILQNKKLHQ [KIP1 C-terminal 12 aa]	0.686 ± 0.034	0.712 ± 0.053
NNLHLPGNTGFF [PDC2 C-terminal 12 aa]	0.728 ± 0.0081	0.712 ± 0.043
NPEATTKPKPRL [PTC5 C-terminal 12 aa]	0.752 ± 0.0099	0.81 ± 0.049
NPNSLPLQPIAN [MSC2 C-terminal 12 aa]	0.704 ± 0.018	0.691 ± 0.015
NRVPKWMKLSKK [UBX4 C-terminal 12 aa]	0.676 ± 0.012	0.679 ± 0.027
NRVVLVDHNSSS [IRS4 C-terminal 12 aa]	0.72 ± 0.024	0.727 ± 0.069
NSDTIARIATVM [DAS1 C-terminal 12 aa]	0.685 ± 0.011	0.595 ± 0.0036
NSIISLEALDAI [SMX2 C-terminal 12 aa]	0.72 ± 0.039	0.708 ± 0.022
NSNELEYAPTAN [LIA1 C-terminal 12 aa]	0.686 ± 0.022	0.7 ± 0.11
NTESSCGFFQWV [APN2 C-terminal 12 aa]	0.72737 ± 0.00023	0.737 ± 0.02
